The values that follow come from the supplement of paper PMC6755084.

This series has as its system F1*sub RNA substrate (template-directed ligation). The series is described as follows: fraction ligated after 30 min (ligated reads / total reads); higher = more ligase activity; sequences stand for … in GAGACCGCAACTGAAAAGTTGT…AGTTCTGCACGTAGAAGCAAAAGGC
Particulars: 42 °C. An outline of the steps:
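Templates from an oligo pool were PCR-amplified, transcribed with T7 and gel-purified to give the ribozyme variants. Ligated and unligated products were separated on gel, reverse transcribed using barcoded primers, and read on a MiSeq. A quality filter of ≥20 was applied to core bases. Fraction ligated was taken as ligated reads as a share of all reads per variant.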
TCACTTGTCGTAAGACACTTTGGTGGGTTGA [3d19] had a fraction ligated of 0.0723.
In turn, TATACTTGTCGTAAGACACTTTGGATGGTTGA [2d87] displayed a fraction ligated of 0.127.
In the case of TTCACTTGTCGTAAGACACTTGGATGGGTTA [3d489], the fraction ligated stood at 0.0495.
The result for “TATCACTTGCGTAAGAACTTTGATGGGTTGA [3d1661]” reads 0.853.
The result for TATCTTGTCGTAAGCACTTTGGATGGGTTGA [3d747] reads 0.743; that for TATATTGTCGTAAGCACTTTGGATGGGTTGA [3d766], 0.411; that for “TATCACTTGCTAGACACTTTGGATGGGTTGA [3d1600]”, 0.805.
As to “TATCACTTGTCGTAGAACTTTGGAGGGTTGA [3d2017]”, the fraction ligated stood at 0.119.
“TATCACTTGCGTAGACATTTGGATGGGTTGA [3d1631]” returned a fraction ligated of 0.821.
The result for “TATCCTTGTCGAAACACTTTGGATGGGTTGA [3d1030]” reads 0.81; that for “TATCACTTTCGTAGACATTTGGATGGGTTGA [3d1511]”, 0.77.
The result for “TATCACTTGTGTAGACACTTTGGATGGGTTG [3d1743]” reads 0.863; that for TACACTTGTGTAAGACACTTGGATGGGTTGA [3d625], 0.0347; that for “TATCACTTGTGTAAGAACTTTGGAGGGTTGA [3d1768]”, 0.0385.
In the case of “TATCACTGTCGTAGACACTTTGGATGGGTTG [3d1397]”, the fraction ligated is 0.811.
The result for TACATTGTCGTAAGACACTTGGATGGGTTGA [3d559] reads 0.19; that for ATCCTTGTCTAAGACACTTTGGATGGGTTGA [3d71], 0.716.
The result for TTCATTGTCGTAAGACACTTTGATGGGTTGA [3d330] reads 0.505; that for “TATCCTTGTCGTAAGAATTTGGATGGGTTGA [3d1075]”, 0.79.
The result for “TATCACTTCGTAAGAACTTTGGATGGGTTGA [3d1317]” reads 0.868.
Sequence “TATCACGTCGAAGACACTTTGGATGGGTTGA [3d1297]” gave a fraction ligated of 0.781.
The result for TACCTTGTCGTAAGACCTTTGGATGGGTTGA [3d538] reads 0.734; that for “TATCACTGTCGTAAGACCTTGGATGGGTTGA [3d1426]”, 0.809; that for TTCACTTGTCTAAGACACTTTGGATGGGTTA [3d414], 0.344.
In turn, “TATCACTGCGTAAGACACTTTGGATGGGTTGA [2d130]” had a fraction ligated of 0.851.
The result for “TATCATTTCGTAAGACACTTTGGATGGTTGA [3d1153]” reads 0.101; that for TTCACTTGTCGTAAGACACTTTGGATGGGTTGA [1d2], 0.789.
The result for TACACTTGTGTAAGACACTTTGATGGGTTGA [3d626] reads 0.0413; that for “TATCACTTGTCGTGACACTTTGGAGGGTTGA [3d1989]”, 0.0822.
The result for “TATCACTTGTCGTAACACTTTGGATGGGTTG [3d2002]” reads 0.806; that for “TATCCTTGTCGTAAGACATTTGGATGGGTTG [3d1096]”, 0.772; that for “TATCACTTGTGTAGACACTTTGGATGGGTTA [3d1742]”, 0.828.
TATCTTGTCGAAGACACTTTGGATGGGTTGA [3d744] had a fraction ligated of 0.755.
The result for TCACTTGTCTAAGACACTTTGGATGGGTTGA [3d9] reads 0.768; that for “TATCACTTGTCGTAAGACATTTGATGGGTTG [3d2219]”, 0.098.
The result for “TATCACTTGTCGAAGACACTTTGATGGGTTG [3d1969]” reads 0.732; that for ATCACTTTCGTAAGACACTTTGGATGGTTGA [3d137], 0.191.
The result for “TATCACTGTCGTAAGACACTTTGATGGGTTG [3d1452]” reads 0.754.
The sequence TACACTTTCGTAAGAACTTTGGATGGGTTGA [3d591] returned a fraction ligated of 0.0829.
The result for “TATCACTTGCGTAGACACTTTGGAGGGTTGA [3d1635]” reads 0.105.
The result for TACACTTGTCGTAAGACACTTTGGAGGGTTA [3d732] reads 0.0323.
The result for “TATCACTTGTGTGACACTTTGGATGGGTTGA [3d1731]” reads 0.826; that for “TATCACTTGTCGAAGACATTGGATGGGTTGA [3d1950]”, 0.787.
The sequence TTCCTTGTCGTAAGACACTTTGGATGGGTTA [3d315] gave a fraction ligated of 0.229.
The result for “TATCACTGTCGTAAGACACTTTGGAGGTTGA [3d1457]” reads 0.0147; that for ATCATTTCGTAAGACACTTTGGATGGGTTGA [3d87], 0.654.
The result for “TATCACTGTCGTAAGACATTTGGAGGGTTGA [3d1436]” reads 0.431; that for TTCACTTGTCGTAAGACACTTTGGTGGGTTGA [2d42], 0.0345.
The result for “TATCACTTGTGAAGACATTTGGATGGGTTGA [3d1723]” reads 0.855; that for “TATCACTTGTCGTAGACATTGGATGGGTTGA [3d2028]”, 0.815; that for TACACTTGTCGTAAGACACTTGGTGGGTTGA [3d716], 0.0903.
In turn, TACACTTGTTAAGACACTTTGGATGGGTTGA [3d617] registered a fraction ligated of 0.244.
Sequence “TATCACTTGTCGTAAGACTTGGATGGGTTGA [3d2107]” showed a fraction ligated of 0.771.
The result for “TATCACTTGTGTAAGACCTTTGGATGGTTGA [3d1776]” reads 0.204.
As to “TATCCTTGTCGTAAGACACTGGATGGGTTGA [3d1097]”, the fraction ligated turned out to be 0.756.
In turn, “TATCACTTTCTAGACACTTTGGATGGGTTGA [3d1480]” displayed a fraction ligated of 0.765.
The result for ATCACTTGTCGTAAGACACTTTGTGGGTTGA [3d261] reads 0.0128.
With “TATCACTTGTTAAACACTTTGGATGGGTTGA [3d1706]”, the fraction ligated amounted to 0.842.
The result for TATACTTGTCGTAAGACACTTTGGATGGTTG [3d946] reads 0.0597; that for TATACTTGTCTAAGACACTTTGGAGGGTTGA [3d853], 0.0271; that for ATCACTTGTCGAAGCACTTTGGATGGGTTGA [3d187], 0.736.
The result for TACACTTGTCGTAAGACATTTGGATGGGTTGA [2d61] reads 0.472.
The result for “TATCACTTGCTAAGCACTTTGGATGGGTTGA [3d1602]” reads 0.834; that for “TATCACTTGTCGTAAACCTTTGATGGGTTGA [3d2068]”, 0.672; that for “TATCATTGTCGTAGAACTTTGGATGGGTTGA [3d1217]”, 0.864.
For the sequence “TATCACTTCGTAAGACACTTTGATGGGTTGA [3d1321]”, the fraction ligated stood at 0.795.
Regarding “TATCATTTCGTAAGACACTTTGGATGGGTTG [3d1155]”, the fraction ligated amounted to 0.769.
The result for ATCACTTGTCGTAAGCACTTTGGATGGGTTA [3d229] reads 0.34; that for “TATCACTTTGTAAGACATTTGGATGGGTTGA [3d1471]”, 0.837.
With ACACTTGTCGTAAGACCTTTGGATGGGTTGA [3d37], the fraction ligated was determined as 0.627.
The result for “TATCACTTTCGAAGACACTTTGGAGGGTTGA [3d1502]” reads 0.0243.
The result for TACACTTGTCGTAGACACTTTGGATGGTTGA [3d669] reads 0.524.
The sequence “TATCACTGTGAAGACACTTTGGATGGGTTGA [3d1344]” came in with a fraction ligated of 0.863.
The result for “TATCACTTGTCGAGACATTTGGATGGGTTGA [3d1907]” reads 0.829; that for “TATCACTTGTCTAGACACTTGGATGGGTTGA [3d1829]”, 0.796.
The result for “TATCACTTGTCGTAAGACACTTGGATGGTTA [3d2251]” reads 0.0219; that for ATCACTTGCGTAGACACTTTGGATGGGTTGA [3d143], 0.818; that for “TATCACTTGTCGTAAGACCTGGATGGGTTGA [3d2183]”, 0.757.
The result for “TATCACTTGTTAAGACACTTTGATGGGTTGA [3d1712]” reads 0.786; that for “TATCCTTGTCTAAGACACTTGGATGGGTTGA [3d1022]”, 0.764; that for TATACTTGTCGTAAACACTTTGGATGGGTTA [3d891], 0.00216.
In the case of TAACTTGTCGTAAGACACTTGGATGGGTTGA [3d521], the fraction ligated is 0.266.
The result for “TATCATTGTCGTAAACATTTGGATGGGTTGA [3d1229]” reads 0.798.
The result for ATCACTTGTCGTAAGACACTTTGGATGGTTG [3d274] reads 0.691; that for “TATCACTTGCGTAAACACTTTGATGGGTTGA [3d1643]”, 0.768; that for “TATCACTTGTCGTAAGACCTTTGGATGGGTT [3d2205]”, 0.744.
The sequence “TATCACTTGGTAAGACACTTTGGATGGTTGA [3d1596]” had a fraction ligated of 0.134.
The result for “TATCACTTGTCGTAAGACACTTTGGTGGGTT [3d2275]” reads 0.011.
On to TTCACTTTCGTAAGACACTTTGGTGGGTTGA [3d366], for which the fraction ligated amounted to 0.00787.
TACACTTGCGTAAGACCTTTGGATGGGTTGA [3d608]: the fraction ligated is 0.0714.
The result for TAACTTGTCGTAAGACACTTTGGATGGGTTG [3d527] reads 0.153; that for TACACTGTCGTAAGACACTTTGGATGGGTTA [3d583], 0.069; that for TTCACTGTCGTAAACACTTTGGATGGGTTGA [3d343], 0.8.
In the case of ATCACTTGTGTAAGACACTTTGGTGGGTTGA [3d166], the fraction ligated amounted to 0.0152.
TAACTTGTCTAAGACACTTTGGATGGGTTGA [3d513] returned a fraction ligated of 0.123.
“TATCACTTGTCGTAACACTTTGGAGGGTTGA [3d1999]” had a fraction ligated of 0.0382.
Sequence “TATCACTTGCGTAGACCTTTGGATGGGTTGA [3d1630]” displayed a fraction ligated of 0.817.
